The supplement of paper PMC9170038

Test system: MS2 coat protein
Assay: apparent KD of MS2 coat protein; designed switch direction (-1 OFF switch, 1 ON switch): 1; higher = weaker reporter binding
Procedure, shortened: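 The apparent KD reported per design is the median over clusters of curve fits to normalised cluster fluorescence. The RNA switches were transcribed on Illumina chips by stalled E. coli RNA polymerase. SNAP-549-labelled MS2 coat protein was titrated from 0.7 or 1.5 nM, doubling up to 3 µM, in Tris-HCl pH 7.5 buffer containing KCl, MgCl2, BSA, DTT, tRNA and Tween-20, with no input, 200 uM small-molecule ligand, or an oligonucleotide input.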

[1] = Eterna round: R95, input ligand: FMN 200 uM
[2] = Eterna round: R95, input ligand: microRNA oligo, concentration not stated
[3] = Eterna round: R95, input ligand: none
[4] = input ligand: microRNA oligo, concentration not stated

Row | Sequence | apparent KD of MS2 coat protein [1] [nM] | apparent KD of MS2 coat protein [2] [nM] | apparent KD of MS2 coat protein [3] [nM] | apparent KD of MS2 coat protein (input ligand: FMN 200 uM) [nM] | apparent KD of MS2 coat protein [4] [nM] | apparent KD of MS2 coat protein (input ligand: none) [nM]
1 | GUAGCAUGCAGCGAGGAUAUUCAUAUUAAAACAUGAGGAUCACCCAUGUAGGCCAAAAGGCCUUGGGAGAAGGCGCACAUGCUAC [Xeonanis - 20] (puzzle: Same State 2) | 31.2 | 527 | 717 |  |  | 
2 | GUCAGGUAAGCUUUUUUCUCGUAGUGUAAACAUGAGGAUCACCCAUGUGCUCACCCUGGAUCUUUGGAUCGCAGAAA [Atormace] (puzzle: Sensor for hsa-mir-208a) | 16.5 | 14.3 | 17.1 |  |  | 
3 | GUGCGGGUAAGAGGAUAUACAAAUUCUCGUUCUGAGACGAGAACAUGAGGAUCACCCAUGUCUAAGUAGAAGGUUUCAGGCACC [Eternabot solution 28] (Eterna round: R96, puzzle: Same State NG 2) |  |  |  | 21.3 | 18.2 | 23
4 | GUGCUCGUGUAAGGAUAUGCUUCCGUUUCGGCUGCAGAAGGUACUAUAAUACAUGAGGAUCACCCAUGUCUCUUUUGUUUGGUG [salish99_SSNG1_r04_908] (Eterna round: R96, puzzle: Same State NG 1) |  |  |  | 86.1 | 58.6 | 76.5
5 | GUGCUCGUGUGAGGAUAUGCUGCCGGGUCGGCUGCAGAAGGUACUAUUAUACAUGAGGAUCACCCAUGUCGCUUUUCUCCGGUG [salish99_SSNG1_r04_918] (Eterna round: R96, puzzle: Same State NG 1) |  |  |  |  | 34.1 | 
6 | GUGGAGGGUUGAGGAUAUUGAAUACAUAUGUUUAACAUGAGGAUCACCCAUGUGGGUUGCGGUAUCGAGAAGGUAAGUUGCUGG [salish99_SSNG2_r04_038] (Eterna round: R96, puzzle: Same State NG 2) |  |  |  | 105 | 94.2 | 89.3
7 | GUGGCCCAGGCACAGGAUAUGUUUCUCGUAACAUGAGGAUCACCCAUGUGCCUAUGAGAUUUUUUGCAGAAGGGUGCACGCCACG [JL Atiinbe mod 02] (puzzle: Same State 2) |  | 134 |  |  |  | 
8 | GUGGCGGGUUGAGGAUAUUGGUUGCCGCUGUUUUACAUGAGGAUCACCCAUGUGGGUUGCGGUUUCGAGAAGGGCGGUUGCUGG [salish99_SSNG2_r04_056] (Eterna round: R96, puzzle: Same State NG 2) |  |  |  | 18.2 | 14.6 | 24
9 | GUGGUCAGACAUGAGGAUCACCCAUGUGGAAUAAAUAACAACUAGGAUAUAUAAUAUAGGAUAUAAUAGAAGGAGUGAUUGGUG (Eterna round: R96, puzzle: Same State NG 3) |  |  |  |  | 121 | 
10 | GUGGUCAGACAUGAGGAUCACCCAUGUGGAAUAAAUAACAACUAGGAUAUGUAAUAUAGGAUAUAACAGAAGGAGUGAUUGGUG (Eterna round: R96, puzzle: Same State NG 3) |  |  |  |  | 111 | 
11 | GUGGUCAGACAUGAGGAUCACCCAUGUGGAAUAAAUAAGGAGAAGGAUAUAGAAUAUAGGAUAUACUAGAAGGUCUGGUUGGUG (Eterna round: R96, puzzle: Same State NG 3) |  |  |  |  | 63.7 | 
12 | GUGGUCAGACAUGAGGAUCACCCAUGUGGAAUAAAUAAGGGAAAGGAUAUAAAAUAUAGGAUAUAUUAGAAGGUUCGGUUGGUG (Eterna round: R96, puzzle: Same State NG 3) |  |  |  | 131 | 83.9 | 89.6
13 | GUGGUCAGACAUGAGGAUCACCCAUGUGGAAUAAAUAAGGGACAGGAUAUUUAAUAUAGGAUAUAGAAGAAGGGUUGGUUGGUG (Eterna round: R96, puzzle: Same State NG 3) |  |  |  |  | 88.7 | 
14 | GUGGUCAGACAUGAGGAUCACCCAUGUGGAAUAAAUAAGGGUUAGGAUAUGGAAUAUAGGAUAUACCAGAAGGGAUGGUUGGUG (Eterna round: R96, puzzle: Same State NG 3) |  |  |  | 123 | 108 | 111
15 | GUGGUCUGACAUGAGGAUCACCCAUGUGGAAUAAAUACGGGUCAGGAUAUCUUGAGGAUCACCCAAGAGAAGGGACGGAUUGUU (Eterna round: R96, puzzle: Same State NG 3) |  |  |  | 24 | 23.5 | 35.1
16 | GUGGUCUGACAUGAGGAUCACCCAUGUGGAAUAAAUACGGGUUAGGAUAUCUUGAGGAUCACCCAAGAGAAGGGAUGGAUUGUU (Eterna round: R96, puzzle: Same State NG 3) |  |  |  | 83.9 | 54.7 | 80.8
17 | GUGGUGAAUUAAGGAUAUCGAGUCUAGAUGUUAAACAUGAGGAUCACCCAUGUGGGUUGCGGUGUCGAGAAGGUAAUUUACGGG [salish99_SSNG2_r04_508] (Eterna round: R96, puzzle: Same State NG 2) |  |  |  |  | 52.6 | 
18 | GUGGUGAAUUAAGGAUAUCGAGUCUAGAUGUUAAACAUGAGGAUCACCCAUGUGGGUUGCGGUGUCGAGAAGGUGGUUUACGGG [salish99_SSNG2_r04_510] (Eterna round: R96, puzzle: Same State NG 2) |  |  |  | 63.2 | 84 | 72.3
19 | GUUACAUGAGGAUCACCCAUGUAUGUGUGGGAGUAAGUGUCUUAGGAUAUCUAGUAUUUAAAUUAAGAGAAGGAAGAUUGUUGU [JMF's solution 9] (Eterna round: R96, puzzle: Same State NG 3) |  |  |  | 117 | 84.8 | 113
20 | GUUACAUGAGGAUCACCCAUGUAUGUGUGGGAGUAAGUGUCUUAGGAUAUCUAGUAUUUAAUCUAAGAGAAGGAAGAUUGUUGU [JMF's solution 65] (Eterna round: R96, puzzle: Same State NG 3) |  |  |  | 105 | 74.1 | 128
21 | GUUACAUGAGGAUCACCCAUGUAUGUGUGGGAGUAAGUGUCUUAGGAUAUCUAUGAUUUAAUUUUAGAGAAGGAAGAUUGUUGU [JMF's solution 86] (Eterna round: R96, puzzle: Same State NG 3) |  |  |  | 112 | 70.9 | 90.8
22 | GUUACAUGAGGAUCACCCAUGUAUGUGUGGGAGUAAGUGUCUUAGGAUAUCUAUUAUUUAAUUUAAGAGAAGGAAGAUUGUUGU [JMF's solution 22] (Eterna round: R96, puzzle: Same State NG 3) |  |  |  |  | 82.3 | 
